The experiment addresses c-Jun N-terminal Kinase (JNK). Briefly: cell-based or functional assay.

Consider L-JNKi1 (peptide), for which the phosphorylation of STX1a (S14) in synaptosomes, L-JNKi1 on its own was -45%.
